The results in this text go back to patent US20100184648A1 (published 2010).

What all share (assay): receptor inhibition assay at 10 µM Compound A, ratio relative to a control compound
One assay has as its target Glutamate AMPA receptor. The method, then:
(§1) The inhibitory action of Compound A against various receptors listed in Table 2 was examined to evaluate the specificity of Compound A. The activities of the receptors were measured by using an appropriate assay system according to the property of the respective receptors. Further, the evaluation results of Compound A were calculated as an inhibition ratio at a final concentration of 10 μM. Here, the inhibition ratio was calculated based on a value of a control compound in each assay. As is apparent from the results shown in Table 2, it was confirmed that Compound A is specific to an MCH receptor. Incidentally, examination was carried out with regard to 173 kinds of physiologically functional proteins including the receptors shown in Table 2, however, the affinity thereof could not be found other than the MCH receptors, and only major receptors are shown in Table 2.

A further assay has as its target Histamine H3 receptor. The method, then:
as §1

A further assay addresses Neuropeptide Y1 receptor. The method, then:
as §1

The target in a further assay is Muscarine M1 receptor. The method, then: as §1

B1: Compound A (peptide)
peptide: RCMXRVYXC
modifications: N-terminal acetyl on Arg 1 (printed Arg-C(=O)CH3); C-terminal amide on Cys 9 (printed H2N-Cys); X at positions 4 and 8 = Ava (5-aminovaleric acid); the two Cys residues (2 and 9) are bound to each other through a -SS- bond
notes: Synthetic cyclic peptide with two non-natural Ava residues; The direction of the printed formula is interpreted; also called MCH1R antagonist; H2N-Cys-Ava-Tyr-Val-Arg-Ava-Met-Cys-Arg-C(=O)CH3
Take B1: the Inhibition ratio with Glutamate AMPA receptor is 8; with Histamine H3 receptor, -6; with Neuropeptide Y1 receptor, 17; in the assay with Muscarine M1 receptor it was 0.
